Laboratory results published in US20200332371A1 (UNIVERSITY OF CHICAGO, published 2020).

Experiments:
[1] = target: SspB-C-term (bacteriophage T7) (UniProt P0AFZ3); experiment: cell-based or functional assay
[2] = target: FKBP-C-term (bacteriophage T7) (UniProt P62942); experiment: cell-based or functional assay
C-ZB [3] = target: T1, C-ZB (bacteriophage T7, UniProt P00573 180-883); experiment: cell-based or functional assay
C-ZB [4] = target: T1, C-ZB; experiment: E. coli luciferase transcription reporter (split T7 RNAP complementation)
Source text: (§1) In vivo transcription assays of split RNAPs. N- and C-terminal halves of the RNAP were cloned into expression vectors, with the N-terminal RNAP under a constitutive promoter and the C-terminal RNAP under the arabinose-inducible promoter (Supplementary FIG. 1). S1030 cells (Carlson, et al., 2014) were transformed by electroporation with three plasmids: (i) an N-terminal RNAP expression plasmid, (ii) a C-terminal expression plasmid, and (iii) a reporter plasmid that encodes luciferase under control of the T7 promoter. The transformed cells were then plated onto agar plates (15 g/L in LB) with 50 μg/mL carbenicillin, 50 μg/mL spectinomycin, 33 μg/mL chloramphenicol, and 10 mM glucose. […] After growth with shaking at 37° C. for 2 h, 150 μL of each culture was transferred to a 96-well black wall, clear bottom plate (Costar), and luminescence and OD600 was measured on a Synergy H4 Hybrid Reader (BioTek). The data were analyzed by dividing the luminscence values by the background-corrected OD600 value, then subtracting out the background from the reporter vector alone. All values were then normalized to the wild-type split RNAP fused to ZA and ZB (data shown in FIG. 1d), which was assigned an arbitrary value of 100, allowing the values from each luminescence plot to be compared to one another. […]

C-term RNAP (WT) = target: T2, C-term RNAP (WT) (bacteriophage T7, UniProt P00573 180-883); experiment: as above
T2 construct: C-terminal half of T7 RNAP split at position 179, without a fusion partner; expressed in E. coli; A start codon for the unfused half is not described; also called C-terminal split RNAP; C-terminal T7 RNAP
T2 sequence (P00573 180-883 limits assumed): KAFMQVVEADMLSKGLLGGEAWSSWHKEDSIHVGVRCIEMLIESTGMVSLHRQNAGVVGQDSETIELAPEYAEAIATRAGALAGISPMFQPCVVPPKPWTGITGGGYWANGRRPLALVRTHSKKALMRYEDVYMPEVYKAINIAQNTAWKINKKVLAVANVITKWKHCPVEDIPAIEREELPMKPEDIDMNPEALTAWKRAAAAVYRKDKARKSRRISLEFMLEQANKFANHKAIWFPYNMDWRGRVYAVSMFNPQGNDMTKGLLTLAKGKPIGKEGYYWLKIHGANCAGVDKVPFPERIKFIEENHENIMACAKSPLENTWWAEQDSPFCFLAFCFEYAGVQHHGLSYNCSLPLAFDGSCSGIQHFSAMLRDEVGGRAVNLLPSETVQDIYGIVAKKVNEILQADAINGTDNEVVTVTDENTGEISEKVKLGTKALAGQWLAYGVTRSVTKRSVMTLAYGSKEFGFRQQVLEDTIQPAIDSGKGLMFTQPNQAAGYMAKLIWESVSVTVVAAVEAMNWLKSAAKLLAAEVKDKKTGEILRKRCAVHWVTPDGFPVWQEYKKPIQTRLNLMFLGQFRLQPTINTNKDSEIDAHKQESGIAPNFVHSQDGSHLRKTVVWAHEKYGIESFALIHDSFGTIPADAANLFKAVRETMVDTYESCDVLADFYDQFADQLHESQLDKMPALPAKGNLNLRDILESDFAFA
Source text: as §1

T1 sequence (P00573 180-883, tags or fused parts left off): as the sequence (P00573 180-883 limits assumed) above
Sequence of SspB-C-term (bacteriophage T7) (P0AFZ3 6-116, tags or fused parts left off): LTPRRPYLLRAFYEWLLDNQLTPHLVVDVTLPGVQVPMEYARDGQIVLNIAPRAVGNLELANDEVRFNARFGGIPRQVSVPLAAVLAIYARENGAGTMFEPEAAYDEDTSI
Sequence of FKBP-C-term (bacteriophage T7) (P62942 1-108, tags or fused parts left off): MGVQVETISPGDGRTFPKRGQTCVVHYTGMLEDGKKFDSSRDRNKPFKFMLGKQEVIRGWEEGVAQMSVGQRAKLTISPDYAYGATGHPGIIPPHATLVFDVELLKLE

N-term-iLID
transcriptional output (luciferase reporter, E. coli), blue LED light against dark [1]: 26 fold

N-term-FRB (from UniProt P42345 2021-2113)
RNA synthesis in the in vivo luciferase transcription reporter assay (E. coli), with rapamycin [2]: 340 fold

B1: N-ZA (other)
chain: MNTINIAKNDFSDIELAAIPFNTLADHYGERLAREQLALEHESYEMGEARFRKMFERQLKAGEVADNAAAKPLITTLLPKMIARINDWFEEVKAKRGKRPTAFQFLQEIKPEAVAYITIKTTLACLTSADNTTVQAVASAIGRAIEDEARFGRIRDLEAKHFKKNVEEQLNKRVGHVYKGGSGSGSSALKKELQANKKELAQLKWELQALKKELAQ
transcription (luciferase reporter under the T7 promoter, E. coli) (C-ZB [3]): ~5 fold

B2: N-term RNAP (WT) (enzyme)
chain: MNTINIAKNDFSDIELAAIPFNTLADHYGERLAREQLALEHESYEMGEARFRKMFERQLKAGEVADNAAAKPLITTLLPKMIARINDWFEEVKAKRGKRPTAFQFLQEIKPEAVAYITIKTTLACLTSADNTTVQAVASAIGRAIEDEARFGRIRDLEAKHFKKNVEEQLNKRVGHVYK
notes: N-terminal half of T7 RNAP split at position 179, without a fusion partner; expressed in E. coli; also called N-terminal split RNAP; N-terminal T7 RNAP
binding result (C-ZB [4]): binds | binding result (C-term RNAP (WT)): binds
